This note sets out measurements from PMC4974071.

For experiment [1], the target named is T1, BCL11A-L (long isoform of BCL11A), wild-type, Q9H165-2.
T1 chain: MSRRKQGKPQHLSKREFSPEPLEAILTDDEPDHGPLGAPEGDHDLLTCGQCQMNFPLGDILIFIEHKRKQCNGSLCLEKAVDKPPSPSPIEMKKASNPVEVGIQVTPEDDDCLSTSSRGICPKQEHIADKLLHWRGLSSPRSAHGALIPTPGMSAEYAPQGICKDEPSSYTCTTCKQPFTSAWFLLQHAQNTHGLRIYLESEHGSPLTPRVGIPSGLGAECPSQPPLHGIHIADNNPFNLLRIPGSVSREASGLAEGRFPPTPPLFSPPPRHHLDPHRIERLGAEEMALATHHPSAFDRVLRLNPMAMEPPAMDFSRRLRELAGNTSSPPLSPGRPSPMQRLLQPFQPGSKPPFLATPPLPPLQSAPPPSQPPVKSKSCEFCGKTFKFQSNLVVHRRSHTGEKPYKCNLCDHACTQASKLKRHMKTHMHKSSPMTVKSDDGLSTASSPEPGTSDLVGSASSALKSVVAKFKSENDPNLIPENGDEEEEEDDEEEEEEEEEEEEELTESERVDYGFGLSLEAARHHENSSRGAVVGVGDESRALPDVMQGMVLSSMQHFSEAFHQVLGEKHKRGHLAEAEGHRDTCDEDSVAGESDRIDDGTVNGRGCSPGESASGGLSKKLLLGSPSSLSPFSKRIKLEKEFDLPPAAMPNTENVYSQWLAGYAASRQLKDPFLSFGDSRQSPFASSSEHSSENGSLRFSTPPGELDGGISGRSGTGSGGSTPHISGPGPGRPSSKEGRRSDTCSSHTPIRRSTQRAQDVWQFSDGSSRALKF
The experiment in a line: BRET assay. The note with it: chain shown with the change; HEK293 cells; donor Renilla luciferase fusion, acceptor YFP fusion; n = 3; parent: est. 0.30; read off a plot.

In experiment [2] the target is T2, BCL11A-S (short isoform of BCL11A), wild-type, Q9H165-3.
T2 chain: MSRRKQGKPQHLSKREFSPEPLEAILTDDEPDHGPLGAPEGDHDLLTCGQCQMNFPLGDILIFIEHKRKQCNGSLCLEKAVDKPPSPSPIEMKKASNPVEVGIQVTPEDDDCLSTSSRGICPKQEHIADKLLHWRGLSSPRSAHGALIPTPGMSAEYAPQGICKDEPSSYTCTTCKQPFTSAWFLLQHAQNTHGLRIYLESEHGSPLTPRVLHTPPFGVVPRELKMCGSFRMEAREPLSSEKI
Briefly: BRET assay. The note with it: chain shown with the change; HEK293 cells; donor Renilla luciferase fusion, acceptor YFP fusion; n = 3; parent: est. 0.36; read off a plot.

B1: BCL11A-L (long isoform of BCL11A), wild-type, Q9H165-2 p.His66Gln (protein)
chain: MSRRKQGKPQHLSKREFSPEPLEAILTDDEPDHGPLGAPEGDHDLLTCGQCQMNFPLGDILIFIEQKRKQCNGSLCLEKAVDKPPSPSPIEMKKASNPVEVGIQVTPEDDDCLSTSSRGICPKQEHIADKLLHWRGLSSPRSAHGALIPTPGMSAEYAPQGICKDEPSSYTCTTCKQPFTSAWFLLQHAQNTHGLRIYLESEHGSPLTPRVGIPSGLGAECPSQPPLHGIHIADNNPFNLLRIPGSVSREASGLAEGRFPPTPPLFSPPPRHHLDPHRIERLGAEEMALATHHPSAFDRVLRLNPMAMEPPAMDFSRRLRELAGNTSSPPLSPGRPSPMQRLLQPFQPGSKPPFLATPPLPPLQSAPPPSQPPVKSKSCEFCGKTFKFQSNLVVHRRSHTGEKPYKCNLCDHACTQASKLKRHMKTHMHKSSPMTVKSDDGLSTASSPEPGTSDLVGSASSALKSVVAKFKSENDPNLIPENGDEEEEEDDEEEEEEEEEEEEELTESERVDYGFGLSLEAARHHENSSRGAVVGVGDESRALPDVMQGMVLSSMQHFSEAFHQVLGEKHKRGHLAEAEGHRDTCDEDSVAGESDRIDDGTVNGRGCSPGESASGGLSKKLLLGSPSSLSPFSKRIKLEKEFDLPPAAMPNTENVYSQWLAGYAASRQLKDPFLSFGDSRQSPFASSSEHSSENGSLRFSTPPGELDGGISGRSGTGSGGSTPHISGPGPGRPSSKEGRRSDTCSSHTPIRRSTQRAQDVWQFSDGSSRALKF
On to B1, for which the results for the response in experiment [1] and in experiment [2] were 0.11 and 0.013, respectively.

B2: BCL11A-L (long isoform of BCL11A), wild-type, Q9H165-2 p.Thr47Pro (protein)
chain: MSRRKQGKPQHLSKREFSPEPLEAILTDDEPDHGPLGAPEGDHDLLPCGQCQMNFPLGDILIFIEHKRKQCNGSLCLEKAVDKPPSPSPIEMKKASNPVEVGIQVTPEDDDCLSTSSRGICPKQEHIADKLLHWRGLSSPRSAHGALIPTPGMSAEYAPQGICKDEPSSYTCTTCKQPFTSAWFLLQHAQNTHGLRIYLESEHGSPLTPRVGIPSGLGAECPSQPPLHGIHIADNNPFNLLRIPGSVSREASGLAEGRFPPTPPLFSPPPRHHLDPHRIERLGAEEMALATHHPSAFDRVLRLNPMAMEPPAMDFSRRLRELAGNTSSPPLSPGRPSPMQRLLQPFQPGSKPPFLATPPLPPLQSAPPPSQPPVKSKSCEFCGKTFKFQSNLVVHRRSHTGEKPYKCNLCDHACTQASKLKRHMKTHMHKSSPMTVKSDDGLSTASSPEPGTSDLVGSASSALKSVVAKFKSENDPNLIPENGDEEEEEDDEEEEEEEEEEEEELTESERVDYGFGLSLEAARHHENSSRGAVVGVGDESRALPDVMQGMVLSSMQHFSEAFHQVLGEKHKRGHLAEAEGHRDTCDEDSVAGESDRIDDGTVNGRGCSPGESASGGLSKKLLLGSPSSLSPFSKRIKLEKEFDLPPAAMPNTENVYSQWLAGYAASRQLKDPFLSFGDSRQSPFASSSEHSSENGSLRFSTPPGELDGGISGRSGTGSGGSTPHISGPGPGRPSSKEGRRSDTCSSHTPIRRSTQRAQDVWQFSDGSSRALKF
Take B2: the response in experiment [1] amounted to 0.11; in experiment [2], 0.001.

B3: BCL11A-L (long isoform of BCL11A), wild-type, Q9H165-2 p.Cys48Phe (protein)
chain: MSRRKQGKPQHLSKREFSPEPLEAILTDDEPDHGPLGAPEGDHDLLTFGQCQMNFPLGDILIFIEHKRKQCNGSLCLEKAVDKPPSPSPIEMKKASNPVEVGIQVTPEDDDCLSTSSRGICPKQEHIADKLLHWRGLSSPRSAHGALIPTPGMSAEYAPQGICKDEPSSYTCTTCKQPFTSAWFLLQHAQNTHGLRIYLESEHGSPLTPRVGIPSGLGAECPSQPPLHGIHIADNNPFNLLRIPGSVSREASGLAEGRFPPTPPLFSPPPRHHLDPHRIERLGAEEMALATHHPSAFDRVLRLNPMAMEPPAMDFSRRLRELAGNTSSPPLSPGRPSPMQRLLQPFQPGSKPPFLATPPLPPLQSAPPPSQPPVKSKSCEFCGKTFKFQSNLVVHRRSHTGEKPYKCNLCDHACTQASKLKRHMKTHMHKSSPMTVKSDDGLSTASSPEPGTSDLVGSASSALKSVVAKFKSENDPNLIPENGDEEEEEDDEEEEEEEEEEEEELTESERVDYGFGLSLEAARHHENSSRGAVVGVGDESRALPDVMQGMVLSSMQHFSEAFHQVLGEKHKRGHLAEAEGHRDTCDEDSVAGESDRIDDGTVNGRGCSPGESASGGLSKKLLLGSPSSLSPFSKRIKLEKEFDLPPAAMPNTENVYSQWLAGYAASRQLKDPFLSFGDSRQSPFASSSEHSSENGSLRFSTPPGELDGGISGRSGTGSGGSTPHISGPGPGRPSSKEGRRSDTCSSHTPIRRSTQRAQDVWQFSDGSSRALKF
On to B3, for which the figures for the response in experiment [1] and in experiment [2] were 0.065 and 0.009, respectively.
